Experimental data taken from paper PMC5681985, “Conserved Molecular Mechanism of TyrA Dehydrogenase Substrate Specificity Underlying Alternative Tyrosine Biosynthetic Pathways in Plants and Microbes” (Frontiers in Molecular Biosciences, 2017).
Where a chain is given by its changes, count along the chain named. Numbers in names are those of the source.

Legend:
OiTyrA (OiTyrAa) = target: T1, OiTyrA (OiTyrAa) (Brucella intermedia, UniProt C4WNJ2); format: biochemical
T1 construct: gene OINT_2001142
T1 sequence (C4WNJ2 1-269 limits assumed): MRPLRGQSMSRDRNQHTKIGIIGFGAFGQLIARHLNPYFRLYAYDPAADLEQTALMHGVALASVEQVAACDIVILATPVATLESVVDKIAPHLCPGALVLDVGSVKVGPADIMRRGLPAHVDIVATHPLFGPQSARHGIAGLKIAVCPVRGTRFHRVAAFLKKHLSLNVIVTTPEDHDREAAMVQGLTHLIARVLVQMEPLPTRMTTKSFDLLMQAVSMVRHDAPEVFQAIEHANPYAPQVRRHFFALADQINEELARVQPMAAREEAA

[1] = system: T2, O=C(O)C(=O)CC1(C(=O)O)C=CC(O)C=C1; test: A340 reduced cofactor formation, Michaelis-Menten fit; format: biochemical, Methanothrix harundinacea; conditions: 25 mM HEPES pH 7.6, 50 mM KCl, 10% ethylene glycol
T2 construct: full-length, codon-optimized, N-terminal 6xHis tag (pET28a), E. coli Rosetta2 (DE3), HisTrap purified; monofunctional enzyme
Description: (§1) A340 reduced cofactor formation, Michaelis-Menten fit on MhTyrA (MhTyrAp)

[2] = system: T3, N[C@@H](CC1(C(=O)O)C=CC(O)C=C1)C(=O)O; test: as above; format: biochemical, Methanothrix harundinacea; conditions: 0.8 mM preferred cofactor (NADP+), 25 mM HEPES pH 7.6, 50 mM KCl, 10% ethylene glycol
T3 construct: full-length, codon-optimized, N-terminal 6xHis tag (pET28a), E. coli Rosetta2 (DE3), HisTrap purified; monofunctional enzyme
Description: as §1

[3] = substrate: N[C@@H](CC1(C(=O)O)C=CC(O)C=C1)C(=O)O; test: as above; format: biochemical, Sediminispirochaeta smaragdinae; conditions: 25 mM HEPES pH 7.6, 50 mM KCl, 10% ethylene glycol
Description: (§2) A340 reduced cofactor formation, Michaelis-Menten fit on SsTyrA (SsTyrAa)

[4] = substrate: O=C(O)C(=O)CC1(C(=O)O)C=CC(O)C=C1; test: as above; format: biochemical, Sediminispirochaeta smaragdinae; conditions: 0.8 mM preferred cofactor, 25 mM HEPES pH 7.6, 50 mM KCl, 10% ethylene glycol
Description: as §2

[5] = 0.8 mM preferred cofactor (NADP+)
[6] = 0.8 mM preferred cofactor (NAD+ slightly preferred)

NC(=O)c1ccc[n+]([C@@H]2O[C@H](COP(=O)(O)OP(=O)(O)OC[C@H]3O[C@@H](n4cnc5c(N)ncnc54)[C@H](O)[C@@H]3O)[C@@H](O)[C@H]2O)c1 [NAD^+]
HPLC product assay, 45 min (OiTyrA (OiTyrAa)): strongly preferred NAD^+ over NADP^+ cofactor

N[C@@H](CC1(C(=O)O)C=CC(O)C=C1)C(=O)O (some centres unmarked) [arogenate]
HPLC product assay, 45 min (OiTyrA (OiTyrAa)): E. coli cell lysate expressing OiTyrA had ADH but not PDH activity

MhTyrA (MhTyrAp) (Methanothrix harundinacea)
Km ([1]; 0.8 mM NADP+): 0.378 ± 0.02 mM | kcat ([1]; 0.8 mM NADP+): 2.44 ± 0.38 s⁻¹ | kcat/Km ([1]; 0.8 mM NADP+): 6440 ± 540 M⁻¹ s⁻¹

MhTyrA (MhTyrAp) (Methanothrix harundinacea; Q227E)
Km [2]: 3.290 ± 0.22 mM | kcat [2]: 0.704 ± 0.03 s⁻¹ | kcat/Km [2]: 213 ± 50 M⁻¹ s⁻¹ | Km [1, 5]: 2.669 ± 0.32 mM | kcat [1, 5]: 0.285 ± 0.02 s⁻¹ | kcat/Km [1, 5]: 107 ± 40 M⁻¹ s⁻¹

B1: SsTyrA (SsTyrAa) (Sediminispirochaeta smaragdinae DSM 11293) (protein)
chain: MVEHTVGIYGLGRFGSFWAKSLAASGLKVIGYNRSKRALPEGVVSGSETEVLSCNTLFYCVAISSFEEVLSRTAAKIGKHTLVFDTCSVKVEPVRTMERLLPQGCTFAGSHPMFGPDSASEGMDGLPMVLCPGRDDEGKVDFWRHHFSKMGLRVIEITADRHDKEAAYTQGITHVVGRILGELDLHESEIATSGYKRLLQVREQTCNDPLQLFIDLQRYNPYTHGMRMELTSALEQIMTLFAQADLPPDRP
notes: full-length, codon-optimized, N-terminal 6xHis tag (pET28a), E. coli Rosetta2 (DE3), HisTrap purified
Km [3, 6]: 0.901 ± 0.15 mM | kcat [3, 6]: 3.44 ± 0.31 s⁻¹ | kcat/Km [3, 6]: 4030 ± 1010 M⁻¹ s⁻¹

B2: SsTyrA (SsTyrAa) (Sediminispirochaeta smaragdinae DSM 11293; D208N) (protein)
chain: B1 chain with D208N
notes: as for B1
Km ([3]; 0.8 mM preferred cofactor): 0.847 ± 0.16 mM | kcat ([3]; 0.8 mM preferred cofactor): 0.45 ± 0.01 s⁻¹ | kcat/Km ([3]; 0.8 mM preferred cofactor): 568 ± 140 M⁻¹ s⁻¹ | Km [4]: 1.742 ± 0.63 mM | kcat [4]: 0.863 ± 0.12 s⁻¹ | kcat/Km [4]: 587 ± 400 M⁻¹ s⁻¹
